This assay deals with T1, purified human MMP-9 (human, UniProt P14780 20-707).
T1 construct: human matrix metalloproteinase 9; May be the same protein as MMP-9-6x His; Methods are in the supplementary file; source: purified
Kind of assay: BLI; ForteBio Octet; who was immobilised and buffer not told in the text shown; three biological replicates. To be noted: both partners purified. For orientation: In BLI a coated tip is dipped into the sample, and binding shifts an interference pattern.

T1 sequence (P14780 20-707): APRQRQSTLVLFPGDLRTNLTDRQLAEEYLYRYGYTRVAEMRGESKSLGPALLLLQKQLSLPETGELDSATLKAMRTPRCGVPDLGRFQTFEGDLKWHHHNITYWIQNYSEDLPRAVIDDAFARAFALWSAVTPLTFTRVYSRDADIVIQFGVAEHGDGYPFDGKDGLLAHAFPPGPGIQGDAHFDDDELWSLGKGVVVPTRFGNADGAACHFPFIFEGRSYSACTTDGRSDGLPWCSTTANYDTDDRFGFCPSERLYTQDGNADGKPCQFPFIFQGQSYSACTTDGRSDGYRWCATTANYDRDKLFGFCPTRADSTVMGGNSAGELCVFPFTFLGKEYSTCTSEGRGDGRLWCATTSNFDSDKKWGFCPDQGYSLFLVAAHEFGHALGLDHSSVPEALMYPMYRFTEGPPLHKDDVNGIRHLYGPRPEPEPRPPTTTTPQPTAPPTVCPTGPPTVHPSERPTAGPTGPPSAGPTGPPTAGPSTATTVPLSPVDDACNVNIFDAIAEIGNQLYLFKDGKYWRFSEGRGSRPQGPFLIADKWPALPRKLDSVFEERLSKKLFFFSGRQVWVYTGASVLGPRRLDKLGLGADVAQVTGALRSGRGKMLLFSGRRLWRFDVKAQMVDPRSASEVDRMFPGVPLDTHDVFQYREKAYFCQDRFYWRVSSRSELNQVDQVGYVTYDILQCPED

B1: purified human TGM2 (transglutaminase 2) (enzyme, UniProt P21980 1-687, looked up)
chain: MAEELVLERCDLELETNGRDHHTADLCREKLVVRRGQPFWLTLHFEGRNYEASVDSLTFSVVTGPAPSQEAGTKARFPLRDAVEEGDWTATVVDQQDCTLSLQLTTPANAPIGLYRLSLEASTGYQGSSFVLGHFILLFNAWCPADAVYLDSEEERQEYVLTQQGFIYQGSAKFIKNIPWNFGQFEDGILDICLILLDVNPKFLKNAGRDCSRRSSPVYVGRVVSGMVNCNDDQGVLLGRWDNNYGDGVSPMSWIGSVDILRRWKNHGCQRVKYGQCWVFAAVACTVLRCLGIPTRVVTNYNSAHDQNSNLLIEYFRNEFGEIQGDKSEMIWNFHCWVESWMTRPDLQPGYEGWQALDPTPQEKSEGTYCCGPVPVRAIKEGDLSTKYDAPFVFAEVNADVVDWIQQDDGSVHKSINRSLIVGLKISTKSVGRDEREDITHTYKYPEGSSEEREAFTRANHLNKLAEKEETGMAMRIRVGQSMNMGSDFDVFAHITNNTAEEYVCRLLLCARTVSYNGILGPECGTKYLLNLNLEPFSEKSVPLCILYEKYRDCLTESNLIKVRALLVEPVINSYLLAERDLYLENPEIKIRILGEPKQKRKLVAEVSLQNPLPVALEGCTFTVEGAGLTEEQKTVEIPDPVEAGEEVKVRMDLLPLHMGLHKLVVNFESDKLKAVKGFRNVIIGPA
notes: human transglutaminase 2; the purified protein's band is called full-length TGM2 (100 kDa) in the cleavage assay; The printed 100 kDa for full-length TGM2 is larger than the native protein; also called recombinant TGM2; source: purified
One may read the Kd as the equilibrium constant for the complex coming apart. Regarding B1, the affinity, expressed as Kd, was 1980 nM.

The record behind these values is publication PMC12888920, “MMP-9 regulates disulphide isomerase activity of TGM2 to enhance fusion glycoprotein-mediated syncytium formation of respiratory syncytial virus” (Protein & Cell, 2025).
